Measurements taken from article PMC2793008.

Target: integrin alpha2beta1 (human (endogenous in cord blood derived megakaryocytes)) (UniProt P17301)
Chain of UniProt P17301 (P17301 30-1181, chain 1 of 2): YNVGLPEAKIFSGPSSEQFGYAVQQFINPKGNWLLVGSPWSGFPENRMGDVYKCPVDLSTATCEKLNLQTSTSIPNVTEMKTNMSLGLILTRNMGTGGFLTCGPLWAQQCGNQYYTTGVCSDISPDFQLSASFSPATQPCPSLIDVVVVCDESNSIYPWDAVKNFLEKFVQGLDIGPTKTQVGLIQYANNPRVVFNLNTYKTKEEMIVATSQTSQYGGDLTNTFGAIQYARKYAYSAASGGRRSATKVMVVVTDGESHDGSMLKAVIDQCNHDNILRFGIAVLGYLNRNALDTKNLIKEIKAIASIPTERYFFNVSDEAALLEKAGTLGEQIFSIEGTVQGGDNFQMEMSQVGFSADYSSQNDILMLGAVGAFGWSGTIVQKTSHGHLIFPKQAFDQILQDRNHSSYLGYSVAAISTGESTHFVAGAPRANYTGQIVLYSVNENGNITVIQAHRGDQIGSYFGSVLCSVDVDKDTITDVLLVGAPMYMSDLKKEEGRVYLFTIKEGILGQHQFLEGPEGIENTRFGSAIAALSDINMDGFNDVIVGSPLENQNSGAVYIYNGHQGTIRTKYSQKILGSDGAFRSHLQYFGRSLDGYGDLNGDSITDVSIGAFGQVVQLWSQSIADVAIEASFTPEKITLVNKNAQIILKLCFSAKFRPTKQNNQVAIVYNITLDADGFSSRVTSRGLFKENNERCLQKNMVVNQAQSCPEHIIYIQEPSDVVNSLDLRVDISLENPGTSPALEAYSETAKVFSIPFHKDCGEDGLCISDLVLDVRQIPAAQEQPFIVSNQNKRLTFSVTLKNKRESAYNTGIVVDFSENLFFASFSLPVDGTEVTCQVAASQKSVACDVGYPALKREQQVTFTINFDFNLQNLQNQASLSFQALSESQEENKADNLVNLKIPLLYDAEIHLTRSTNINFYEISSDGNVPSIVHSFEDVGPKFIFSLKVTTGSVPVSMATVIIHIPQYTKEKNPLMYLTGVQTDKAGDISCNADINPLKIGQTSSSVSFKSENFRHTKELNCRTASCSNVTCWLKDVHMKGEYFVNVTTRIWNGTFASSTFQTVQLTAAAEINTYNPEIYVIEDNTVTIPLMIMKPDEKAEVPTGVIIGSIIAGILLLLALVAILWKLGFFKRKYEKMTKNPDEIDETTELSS
Chain of UniProt P17301 (P05556 21-798, chain 2 of 2, further chain): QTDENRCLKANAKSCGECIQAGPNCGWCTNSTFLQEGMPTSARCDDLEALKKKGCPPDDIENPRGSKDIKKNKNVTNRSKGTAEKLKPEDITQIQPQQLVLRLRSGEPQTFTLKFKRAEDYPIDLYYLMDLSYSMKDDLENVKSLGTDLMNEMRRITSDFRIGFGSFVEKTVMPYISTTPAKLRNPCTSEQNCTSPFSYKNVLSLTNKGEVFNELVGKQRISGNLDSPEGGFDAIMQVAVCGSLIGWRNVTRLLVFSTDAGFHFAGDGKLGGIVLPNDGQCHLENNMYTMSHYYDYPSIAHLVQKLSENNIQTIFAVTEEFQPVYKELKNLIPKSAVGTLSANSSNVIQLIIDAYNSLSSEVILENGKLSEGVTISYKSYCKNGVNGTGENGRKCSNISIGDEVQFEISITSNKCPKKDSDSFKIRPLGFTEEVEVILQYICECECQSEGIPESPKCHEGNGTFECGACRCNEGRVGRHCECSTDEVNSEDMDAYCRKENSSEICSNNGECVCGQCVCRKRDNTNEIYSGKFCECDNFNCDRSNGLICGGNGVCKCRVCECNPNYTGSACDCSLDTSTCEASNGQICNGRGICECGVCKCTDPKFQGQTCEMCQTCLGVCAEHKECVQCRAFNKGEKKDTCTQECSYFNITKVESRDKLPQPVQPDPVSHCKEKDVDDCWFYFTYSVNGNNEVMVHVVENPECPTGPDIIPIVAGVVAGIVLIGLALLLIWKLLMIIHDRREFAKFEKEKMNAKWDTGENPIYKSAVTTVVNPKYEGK

Work on “type I collagen (from UniProt P02452 162-1218; P08123 80-1119) (complex)” yielded an adhesion of mature megakaryocytes to hOSTs (day 18) after pre-incubation with 30 µg/mL anti-integrin alpha2 monoclonal antibody P1E6, against unrelated IgG of 30%.
